First the molecules themselves.
T1: ITGA6
T1 construct: unrelated antigen column; all antibodies give 0.5 to 0.6
T1 sequence (P23229 whole entry, species assumed, looked up): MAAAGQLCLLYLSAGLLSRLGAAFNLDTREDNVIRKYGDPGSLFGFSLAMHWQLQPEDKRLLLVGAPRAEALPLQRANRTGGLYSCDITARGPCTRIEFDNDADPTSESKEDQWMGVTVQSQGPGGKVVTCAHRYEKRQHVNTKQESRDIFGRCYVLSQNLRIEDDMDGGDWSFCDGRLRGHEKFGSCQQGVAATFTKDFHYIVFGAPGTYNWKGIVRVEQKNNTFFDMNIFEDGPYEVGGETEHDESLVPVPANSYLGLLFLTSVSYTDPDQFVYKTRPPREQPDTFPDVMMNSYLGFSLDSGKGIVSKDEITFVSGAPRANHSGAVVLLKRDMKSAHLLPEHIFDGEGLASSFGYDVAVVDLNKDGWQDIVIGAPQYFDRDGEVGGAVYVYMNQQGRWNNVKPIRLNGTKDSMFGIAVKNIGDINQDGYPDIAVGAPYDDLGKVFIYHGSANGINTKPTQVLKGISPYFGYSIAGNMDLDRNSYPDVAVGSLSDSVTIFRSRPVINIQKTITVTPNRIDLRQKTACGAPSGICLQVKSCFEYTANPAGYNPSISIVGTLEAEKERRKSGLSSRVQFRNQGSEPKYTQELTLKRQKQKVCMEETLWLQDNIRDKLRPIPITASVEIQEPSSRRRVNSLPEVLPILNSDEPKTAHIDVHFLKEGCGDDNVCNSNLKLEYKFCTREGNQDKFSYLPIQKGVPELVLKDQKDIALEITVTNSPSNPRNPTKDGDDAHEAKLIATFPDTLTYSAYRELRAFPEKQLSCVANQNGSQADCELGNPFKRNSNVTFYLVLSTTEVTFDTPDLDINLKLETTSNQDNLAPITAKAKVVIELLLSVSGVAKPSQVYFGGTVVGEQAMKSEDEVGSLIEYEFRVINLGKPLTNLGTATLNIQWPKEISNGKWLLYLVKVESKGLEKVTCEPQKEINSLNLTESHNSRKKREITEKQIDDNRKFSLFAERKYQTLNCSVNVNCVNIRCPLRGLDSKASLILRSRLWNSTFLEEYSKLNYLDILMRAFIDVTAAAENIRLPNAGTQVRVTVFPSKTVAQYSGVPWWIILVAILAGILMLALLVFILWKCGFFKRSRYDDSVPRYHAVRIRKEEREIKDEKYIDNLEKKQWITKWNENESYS

B1: PDL1-22B10 (antibody, V domains shown)
VH: QVQLVQSGAEVKKPGSSVKVSCRASGGTFSSYAISWVRQAPGQGLEWMGRIIPILGIANYAQKFQGRVTITADKSTSTAYMELSSLRSEDTAVYYCARDFVLSGSATVFDPWGQGTLVTVSS
VL: QFVLTQPPSVSGAPGQRVTISCTGSSTNIGAGYDVHWYQQLPGKAPKVVIYGNSNRPSGVLDRFSASKSATSASLAITGLQAEDEADYYCQSYDSSLSGYVFGTGTKVTVL
notes: Only FR/CDR pieces are tied to the clone
B2: PDL1-30B1 (antibody, V domains shown)
VH: QVQLVESGGGVVQPGRSLRLSCAASGFTFSSYAMHWVRQGPGKGLEWVAVISYDGSNEFYADSVKGRFTISRDNSKNTLYLQMNSLRAEDTAVYYCARGDYNGVYMDVWGQGTTVTVSS
VL: DIVMTQTPLSLSVTPGQPASISCKSSQSLLHSDGKTYLYWYLQKPGQSPQLLIYEVSKRFSGVPDRFSGSGSGTDFTLKIGRVEAEDVGVYYCMQGLHLPYTFGQGTKLEIK
notes: as for B1
B3: PDL1-16E12 (LS/4H5) (antibody, V domains shown)
VH: QMQLVQSGAEVKKPGSSVKVSCKASGGTFSSYAISWVRQAPGQGLEWMGRIIPILGIANYAQKFQGRVTITADKSTSTAYMELSSLRSEDTAVYYCAKPRDGYNLVAFDIWGQGTMVTVSS
VL: QLVLTQPPSVSGAPGQRVTISCTGSSSNIGAGYDVHWYQQLPGTAPKLLIYGNSNRPSGVPDRFSGSKSGTSASLAITGLQAEDEADYYCQSYDSSLSGGVFGGGTKLTVL
notes: also called PD-L1-16E12-4H5
B4: PDL1-16E12 (LS/4C9) (antibody, V domains shown)
VH: B3 VH
VL: QLVLTQPPSVSGAPGQRVTISCTGGSSNIGAGYDVHWYQQLPGTAPKLLLFGNTNRPSGVPGRFSGSKSGSSASLAITGLQSDDEADYYCQSYDSSLGGSVIGTGTKVTVL
notes: also called PD-L1-16E12-4C9
B5: PDL1-16E12 (LS/4H8) (antibody, V domains shown)
VH: B3 VH
VL: QLVLTQPSSVSGAPGQRVTISCTGSSSNIGAGYDVHWYQQLPGTAPKLLIYGNSNRPSGVPDRFSGSKSGTSASLAITGLQAEDEADYYCQSYDSSLSGSGVFGTGTKVTVL
notes: also called PD-L1-16E12-4H8
B6: PDL1-16E12 (LS/4A7) (antibody, V domains shown)
VH: B3 VH
VL: QLVLTQPPSVSGAPGQRVTISCTGSSSNIGAGYDVHWYQSLPGTVPKLLISGNSNRPPGVPDRFSGSKSGTSASLAITSLQSEDEADYYCHSYDGSLSEGVFGTGTKVTVL
notes: also called PD-L1-16E12-4A7
B7: PDL1-16E12 (LS/4A11) (antibody, V domains shown)
VH: B3 VH
VL: B3 VL with T19I, L41V, S54N, N55H, A86T, S95N, S96R, G100S, V101L
notes: also called PD-L1-16E12-4A11

Usually Kd stands for the free concentration of one partner at which half of the binding sites on the other are occupied at equilibrium, for simple one-to-one binding. The low end stands for higher affinity, the high end for lower affinity. A word on the koff: it is a measure of how fast the partners let go of each other. What is called kon is the rate constant with which the complex forms. High values mean fast association, low ones slow association.

Substitutions are numbered along the chain they refer to.

T3 sequence (Q9NZQ7 19-290): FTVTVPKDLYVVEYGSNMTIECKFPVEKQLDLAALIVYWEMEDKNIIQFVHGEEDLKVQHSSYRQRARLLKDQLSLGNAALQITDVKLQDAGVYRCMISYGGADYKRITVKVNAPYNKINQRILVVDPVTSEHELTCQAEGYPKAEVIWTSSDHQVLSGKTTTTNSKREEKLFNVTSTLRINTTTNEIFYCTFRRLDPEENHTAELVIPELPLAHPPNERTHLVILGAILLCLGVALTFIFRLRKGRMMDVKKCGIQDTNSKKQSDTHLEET
T5 sequence (Q9NZQ7 19-238 limits assumed): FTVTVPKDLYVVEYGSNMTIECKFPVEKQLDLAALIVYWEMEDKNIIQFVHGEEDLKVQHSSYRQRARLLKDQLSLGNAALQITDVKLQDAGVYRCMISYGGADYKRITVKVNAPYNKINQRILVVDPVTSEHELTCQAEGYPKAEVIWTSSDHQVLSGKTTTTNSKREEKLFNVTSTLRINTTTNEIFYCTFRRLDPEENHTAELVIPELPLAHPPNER

For one experiment, the target named is mouse PD-L1 protein (mouse, UniProt Q9EP73 19-238, limits assumed). Put plainly: ELISA on coated antigen, column mPD-L1. How it is done: (§1) An antigen PD-L1 wild type (WT) or several mutants were coated at a density of 100 ng/well on a 96-well immunoplate at 4° C. for 16 hours and the wells were blocked with 4% skim milk dissolved in PBS. Each well was washed with 0.2 ml of PBS/T, and then a single clone scFv-phage (each […]) cultured for 16 hours was added in a dose of 100 μl to each well and reacted at room temperature for 2 hours. Again, each well was washed 4 times with 0.2 ml of PBS/T, and then the second antibody, anti-Fab, was diluted to 1/2000 and reacted at room temperature for 1 hour. After washing with 0.2 ml of PBS/T, color development was performed and absorbance was measured at 490 nm.
mouse PD-L1 protein, sequence (Q9EP73 19-238 limits assumed): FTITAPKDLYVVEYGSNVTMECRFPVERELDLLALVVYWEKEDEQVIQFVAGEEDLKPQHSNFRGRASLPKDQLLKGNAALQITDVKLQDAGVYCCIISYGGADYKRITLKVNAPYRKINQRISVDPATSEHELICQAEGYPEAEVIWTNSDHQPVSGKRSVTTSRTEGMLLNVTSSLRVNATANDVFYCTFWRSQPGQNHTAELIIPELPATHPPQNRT
For orientation: In an ELISA, binding on a coated surface is turned into a signal by an enzyme label.
B1: the “absorbance at 490 nm” value turned out to be 0.2 and the binding result is “no binding”.

On to B2, for which the “absorbance at 490 nm” value worked out at 0.1 and the binding result is given as “no binding”.

In another experiment the target is T2, PD-L1-hFc (human, UniProt Q9NZQ7 19-238).
T2 construct: extracellular domain; Made in HEK-293F cells, protein A purified; also called PD-L1 antigen; PD-L1 protein
T2 sequence (Q9NZQ7 other isoform, or with tags, fused parts or gaps limits assumed): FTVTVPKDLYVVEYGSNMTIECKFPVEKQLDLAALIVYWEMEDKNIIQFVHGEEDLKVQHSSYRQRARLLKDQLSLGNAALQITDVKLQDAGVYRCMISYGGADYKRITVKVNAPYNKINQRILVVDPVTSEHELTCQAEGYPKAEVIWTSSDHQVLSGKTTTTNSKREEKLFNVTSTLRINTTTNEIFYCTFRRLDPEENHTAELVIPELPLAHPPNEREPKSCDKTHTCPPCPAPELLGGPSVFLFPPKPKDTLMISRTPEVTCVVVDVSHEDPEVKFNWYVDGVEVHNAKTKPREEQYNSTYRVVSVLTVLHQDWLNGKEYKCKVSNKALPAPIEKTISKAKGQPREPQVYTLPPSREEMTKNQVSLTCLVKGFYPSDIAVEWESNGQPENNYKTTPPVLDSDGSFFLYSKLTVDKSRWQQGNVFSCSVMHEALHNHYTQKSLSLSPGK
As to the kind of experiment: kinetics on PD-L1-hFc (legend paragraph 40; text names ProteOn XPR36, the sheet's sensorgrams have a nm axis).
For the molecule B3, the Kd is less than 0.001 nM, the dissociation rate constant (koff) is less than 1e-07 s⁻¹ and the kon is 226000 M⁻¹ s⁻¹.

For B4, the Kd is 0.0158 nM, the koff worked out at 2.62e-06 s⁻¹ and the on-rate (kon) stood at 166000 M⁻¹ s⁻¹.

The molecule B5 returned a Kd of less than 0.001 nM, a koff of less than 1e-07 s⁻¹ and an on-rate constant (kon) of 240000 M⁻¹ s⁻¹.

For the molecule B6, the dissociation constant Kd was 0.0396 nM and the kon turned out to be 161000 M⁻¹ s⁻¹.

B7 had a dissociation constant Kd of 0.0798 nM, a koff of 1.28e-05 s⁻¹ and an on-rate (kon) of 160000 M⁻¹ s⁻¹.

Another experiment deals with M8. As to the kind of experiment: ELISA on coated antigen, column M8. How it is done:
as §1
For B1, the “absorbance at 490 nm” value was determined as 2.6.

Regarding B2, the “absorbance at 490 nm” value came to 2.7.

A further experiment deals with M2. Put plainly: ELISA on coated antigen, column M2. How it is done:
as §1
Take B1: the “absorbance at 490 nm” value is 2.3.

Consider B2, for which the “absorbance at 490 nm” value is 2.5.

The target in another experiment is M4. Put plainly: ELISA on coated antigen, column M4. The procedure: as §1
On to B1, for which the “absorbance at 490 nm” value was found to be 0.4.

On to B2, for which the “absorbance at 490 nm” value amounted to 2.6.

In the next experiment the target is M6. Put plainly: ELISA on coated antigen, column M6. The procedure:
as §1
Turning to B1, the “absorbance at 490 nm” value amounted to 2.5.

For the molecule B2, the “absorbance at 490 nm” value stood at 2.6.

The target of a further experiment is M5. Put plainly: ELISA on coated antigen, column M5. How it is done:
as §1
For B1, the “absorbance at 490 nm” value was 2.5.

Consider B2, for which the “absorbance at 490 nm” value was found to be 2.6.

The next experiment concerns the target T3, human PD-L1 over-expressed on HEK293E cells (human, UniProt Q9NZQ7 19-290).
T3 construct: whole, on cells; also called human PD-L1 (NM_014143.2)
As to the kind of experiment: flow cytometry on HEK293E/PD-L1 cells, FITC anti-human IgG, serial dilutions; fit table. The procedure: 0.5 to 1×10⁶ cells per sample were prepared from the transformation cell pools highly expressing human PD-L1, and antibodies were serially diluted at a constant dilution rate and reacted with the prepared cells at 4° C. for 20 minutes. Then, the cells were washed three times with PBS (#LB001-02, Welgene) containing 2% fetal bovine serum and reacted at 4° C. for 20 minutes with an anti-human IgG antibody (#FI-3000, Vectorlabs) conjugated with a FITC (fluorescein isothiocyanate) fluorescent substance. Then, the cells were subjected to the same washing process as above and then suspended in 0.5 ml of PBS containing 2% FBS (#26140-079, Thermo Fisher) with an FACSCanto II flow cytometer (BD Biosciences, USA) as a flow cytometer (Table 11).
On the technique in general: Flow cytometry measures light scatter and fluorescence of single cells or particles in a stream.
Regarding B3, the Bmax is 4020 and the affinity, expressed as Kd, was 1.93 nM.

B4 had a Bmax of 4400 and a Kd of 2.42 nM.

Regarding B5, the Bmax was determined as 3990 and the dissociation constant (Kd) stood at 1.98 nM.

B6 showed a Bmax of 4260 and a dissociation constant (Kd) of 3.92 nM.

The molecule B7 had a Bmax of 4230 and a dissociation constant (Kd) of 2.57 nM.

The target in a further experiment is T4, PD-L1 on CHO cell line highly expressing PD-L1 (PD-1/PD-L1 blockade bioassay kit, promega J1250) (UniProt Q9NZQ7 19-290, limits assumed). Put plainly: cell-based or functional assay.
T4 sequence (Q9NZQ7 19-290 limits assumed): as the sequence (Q9NZQ7 19-290) above
With B3, the “Average *EC50 [nM], PD-1/PD-L1 blockade bioassay” value (“Average *EC50 [nM]” below) was 0.33 nM.

For B4, the “Average *EC50 [nM]” value amounted to 0.39 nM.

For B5, the “Average *EC50 [nM]” value stood at 0.36 nM.

On to B6, for which the “Average *EC50 [nM]” value stood at 0.37 nM.

As for B7, the “Average *EC50 [nM]” value was 0.34 nM.

For a further experiment, the target named is M3. As to the kind of experiment: ELISA on coated antigen, column M3.
For B1, the “absorbance at 490 nm” value turned out to be 1.

Turning to B2, the “absorbance at 490 nm” value turned out to be 2.8.

The next experiment has as its target M7. Put plainly: ELISA on coated antigen, column M7.
Take B1: the “absorbance at 490 nm” value was found to be 2.5.

Take B2: the “absorbance at 490 nm” value stood at 2.7.

In another experiment the target is M1. Put plainly: ELISA on coated antigen, column M1. The procedure: as §1
Turning to B1, the “absorbance at 490 nm” value was determined as 2.3.

With B2, the “absorbance at 490 nm” value is 2.6.

A further experiment deals with T1, ITGA6. Put plainly: ELISA on coated antigen, column ITGA6.
In the case of B1, the “absorbance at 490 nm” value stood at 0.5.

B2: the “absorbance at 490 nm” value is 0.6.

The next experiment has as its target T5, WT (human, UniProt Q9NZQ7).
T5 construct: recombinant; also called hPD-L1; antigen PD-L1 wild type (WT)
Put plainly: ELISA on coated antigen, column WT. The procedure:
as §1
In the case of B1, the “absorbance at 490 nm” value came to 2.5.

The target of the next experiment is T4, PD-L1 on CHO cell line highly …. As to the kind of experiment: cell-based or functional assay. The source holds these as a separate data set.
As for B3, the “EC50 (first run)” value came out at 0.43 nM and the “EC50 (second run)” value was 0.26 nM.

As to B4, the “EC50 (first run)” value is 0.4 nM and the “EC50 (second run)” value is 0.4 nM.

Regarding B5, the “EC50 (first run)” value stood at 0.43 nM and the “EC50 (second run)” value came to 0.31 nM.

Take B6: the “EC50 (first run)” value amounted to 0.38 nM and the “EC50 (second run)” value was 0.4 nM.

As for B7, the “EC50 (first run)” value came out at 0.37 nM and the “EC50 (second run)” value turned out to be 0.36 nM.

Values taken from patent US20190322750A1 (Y BIOLOGICS, published 2019).
